Results on one molecule are retold here after US20260144867A1 (TIGATX, published 2026).

The target of this assay is T1, EGFR expressed on A431, A1207 and D562 cell lines (human, UniProt P00533 25-1210).
T1 construct: whole, on cells; also called EGFR-expressing A431 cell line
The assay is described as follows: competitive flow cytometry on A431 cells; blocked ligand: fluorescently labeled EGF (EGF-AL488). For orientation: A flow cytometer gives signals particle by particle.

B1: anti-EGFR IgA3.0min DP3 (antibody, V domains shown)
VH: QVQLVQSGAEVKKPGASVKVSCKASGYTFTSHWMHWVRQAPGQGLEWIGEFNPSNGRTNYNEKFKSKATMTVDTSTNTAYMELSSLRSEDTAVYYCASRDYDYDGRYFDYWGQGTLVTVSS
VL: DIQMTQSPSSLSASVGDRVTITCSASSSVTYMYWYQQKPGKAPKLLIYDTSNLASGVPSRFSGSGSGTDYTFTISSLQPEDIATYYCQQWSSHIFTFGQGTKVEIKR
notes: also called anti-EGFR IgA3.0min DS3
Take B1: the “IC50 (read off the curve)” value was around 3 µg/mL.
